Among the data in patent publication US20160115217A1 are Hes1 reporter gene activity and HUVEC buds containing multiple filopodia values, retold here.

The target in experiment [1] is Notch1 (full-length receptor expressed on cells). In words: cell-based or functional assay.
Experiment [2] deals with Flt1 (VEGFR-1) on Ad-N1IC-transduced HUVEC (human) (UniProt P17948). In words: cell-based or functional assay.
Chain of Flt1 (VEGFR-1) on Ad-N1IC-transduced HUVEC (human) (P17948 27-1338): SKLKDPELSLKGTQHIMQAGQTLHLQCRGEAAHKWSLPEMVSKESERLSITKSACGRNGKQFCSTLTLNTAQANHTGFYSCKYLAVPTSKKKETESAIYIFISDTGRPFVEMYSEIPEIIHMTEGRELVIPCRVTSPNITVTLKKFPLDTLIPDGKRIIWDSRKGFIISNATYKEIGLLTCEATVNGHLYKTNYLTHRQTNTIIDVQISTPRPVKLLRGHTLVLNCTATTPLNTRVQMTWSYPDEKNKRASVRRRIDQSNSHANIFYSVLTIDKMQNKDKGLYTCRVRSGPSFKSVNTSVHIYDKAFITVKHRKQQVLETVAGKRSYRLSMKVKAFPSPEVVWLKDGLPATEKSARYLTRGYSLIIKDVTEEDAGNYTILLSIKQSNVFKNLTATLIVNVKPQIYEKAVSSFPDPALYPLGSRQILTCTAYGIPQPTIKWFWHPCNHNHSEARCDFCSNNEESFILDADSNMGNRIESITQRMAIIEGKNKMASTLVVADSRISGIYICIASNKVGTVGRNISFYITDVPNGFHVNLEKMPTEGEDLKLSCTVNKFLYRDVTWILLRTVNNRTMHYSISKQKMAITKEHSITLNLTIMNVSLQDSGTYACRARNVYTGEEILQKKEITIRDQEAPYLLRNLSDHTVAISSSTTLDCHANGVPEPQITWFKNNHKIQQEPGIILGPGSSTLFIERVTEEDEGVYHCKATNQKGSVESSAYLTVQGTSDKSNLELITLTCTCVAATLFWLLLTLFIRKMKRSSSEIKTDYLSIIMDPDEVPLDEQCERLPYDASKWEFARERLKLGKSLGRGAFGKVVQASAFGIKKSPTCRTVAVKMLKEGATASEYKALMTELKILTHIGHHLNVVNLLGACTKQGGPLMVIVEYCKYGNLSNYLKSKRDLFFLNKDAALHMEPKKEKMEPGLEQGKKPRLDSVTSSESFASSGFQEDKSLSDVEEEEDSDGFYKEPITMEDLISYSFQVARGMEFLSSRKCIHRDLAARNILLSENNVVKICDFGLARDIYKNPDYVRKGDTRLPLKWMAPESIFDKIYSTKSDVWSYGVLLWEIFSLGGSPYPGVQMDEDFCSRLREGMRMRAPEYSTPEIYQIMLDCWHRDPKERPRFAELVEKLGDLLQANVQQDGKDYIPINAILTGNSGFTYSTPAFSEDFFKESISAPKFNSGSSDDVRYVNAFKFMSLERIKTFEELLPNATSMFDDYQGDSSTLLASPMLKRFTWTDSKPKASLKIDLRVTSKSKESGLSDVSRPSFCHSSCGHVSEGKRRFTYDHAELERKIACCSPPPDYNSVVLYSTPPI

Jagged1 (ligand) registered a Hes1 reporter gene activity in experiment [1] of 3.7 fold.

Regarding P1GF (placental growth factor) (ligand), in experiment [2], the HUVEC buds containing multiple filopodia amounted to 250%.
